Reference: article PMC11086627, “Substrate displacement of CK1 C-termini regulates kinase specificity” (Science Advances, 2024)
One block for each molecule: values may come before it. Square brackets hold non-standard residues; d marks the D form. Ends that are not written are not given here. * marks the point of attachment. Biotin = O=C1N[C@H]2[C@H](CS[C@H]2CCCCC(=O)*)N1; pT = C[C@@H](OP(=O)(O)O)[C@H](N)C(=O)O; pS = N[C@@H](COP(=O)(O)O)C(=O)O

Columns and labels:
CK1ε CK1εΔC, 1-294 = CK1ε CK1εΔC, 1-294 (UniProt P49674); experiment: biotin-peptide streptavidin bead pull-down; conditions: reference: unphosphorylated EC peptide; sites S389,S390,S391,S405,T407,S408
Sequence of CK1ε CK1εΔC, 1-294 (P49674 383-416, stated change not applied): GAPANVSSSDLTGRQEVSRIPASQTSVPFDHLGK

[1] = molecular target: Hhp1 C-terminus (Cter), 297-365 (UniProt P40235); experiment: equilibrium bead binding, supernatant depletion; conditions: reference: wild-type Hhp1ΔC; sites T221,T222
[2] = molecular target: Hhp1 Cter-6P peptide (amino acids 297 to 365 of Hhp1, phosphorylated at six sites, biotin-conjugated) (S. pombe) (UniProt P40235); experiment: pull-down; competitive equilibrium binding assay: as the equilibrium binding assay on peptide beads, with 25 μM substrate (casein or Rec11) added along with the kinase; fit constrained to Bmax = 1 for the apparent Kd; Ki from Kd(app)=Kd(1+[I]/Ki)
[3] = molecular target: Hhp1 Cter-6P peptide (amino acids 297 to 365 of Hhp1, phosphorylated at six sites, biotin-conjugated) (S. pombe) (UniProt P40235); experiment: pull-down; equilibrium binding assay: peptide-conjugated streptavidin beads at 0 to 847 μM peptide incubated with 100 ng of MBP-Hhp1ΔC in binding buffer [50 mM tris (pH 7.0), 25 mM NaCl, 1 mM EDTA, 1 mM DTT], 1 hour at 4°C; unbound kinase in the supernatant by Western blot and densitometry; one-site specific binding fit
[4] = molecular target: MBP-Hhp1ΔC (Hhp1 amino acids 1 to 296) (S. pombe) (UniProt P40235); experiment: pull-down; competitive equilibrium binding assay: as the equilibrium binding assay on peptide beads, with 25 μM substrate (casein or Rec11) added along with the kinase; fit constrained to Bmax = 1 for the apparent Kd; Ki from Kd(app)=Kd(1+[I]/Ki)
Hhp1 Hhp1ΔC, 1-296 = Hhp1 Hhp1ΔC, 1-296 (UniProt P40235); experiment: biotin-peptide streptavidin bead pull-down; conditions: reference: unphosphorylated Cter peptide; sites S326,S327,T345,T346,S354,T356
[5] = molecular target: MBP-CK1εΔC (human CK1ε amino acids 1-294) (human) (UniProt P49674); experiment: ITC; Nano-ITC, 25°C, 10 mM NaPO4 (pH 7.5), 150 mM NaCl, 0.25 mM TCEP; cell: 100 μM MBP-Hhp1ΔC or MBP-CK1εΔC; syringe: 2 mM peptide; single-site binding model; duplicate
Sequence of MBP-CK1εΔC (human CK1ε amino acids 1-294) (human) (P49674 1-294, stated change not applied): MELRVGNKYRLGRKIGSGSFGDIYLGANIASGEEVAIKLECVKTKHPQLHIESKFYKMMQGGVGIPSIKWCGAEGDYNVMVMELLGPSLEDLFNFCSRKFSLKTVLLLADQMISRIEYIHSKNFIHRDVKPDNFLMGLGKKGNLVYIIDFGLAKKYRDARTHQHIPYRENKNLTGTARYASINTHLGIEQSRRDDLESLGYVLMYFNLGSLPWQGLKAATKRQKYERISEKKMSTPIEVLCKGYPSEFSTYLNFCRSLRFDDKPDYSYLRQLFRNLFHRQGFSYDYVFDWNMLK

MBP-CK1εΔC-T220N = molecular target: T1, MBP-CK1εΔC-T220N (human, UniProt P49674 1-294, T220N); experiment: pull-down; biotin peptide on streptavidin sepharose (500 μM peptide) incubated with 2 μg of MBP-kinaseΔC in binding buffer [50 mM tris (pH 7.0), 25 mM NaCl, 1 mM EDTA, 1 mM DTT], 1 hour at 4°C; beads blocked in 5% BSA; bound protein detected by Western blot with anti-MBP; conditions: both partners purified
T1 construct: human CK1ε, amino acids 1-294, kinase domain autophosphorylation site T220 mutated; source: E. coli Rosetta2(DE3)pLysS, purified (amylose beads, eluted with maltose)
T1 sequence (looked up): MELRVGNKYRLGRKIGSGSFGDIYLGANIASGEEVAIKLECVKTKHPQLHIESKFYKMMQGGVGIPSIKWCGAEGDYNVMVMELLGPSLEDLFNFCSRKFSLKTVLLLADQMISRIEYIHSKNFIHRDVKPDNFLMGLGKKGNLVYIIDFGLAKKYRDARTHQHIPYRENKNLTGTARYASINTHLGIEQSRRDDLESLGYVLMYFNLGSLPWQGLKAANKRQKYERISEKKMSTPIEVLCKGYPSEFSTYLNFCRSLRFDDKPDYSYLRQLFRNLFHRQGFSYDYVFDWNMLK

MBP-Hhp1ΔC-VV = molecular target: T2, MBP-Hhp1ΔC-VV (S. pombe, UniProt P40235 1-296)
T2 chain: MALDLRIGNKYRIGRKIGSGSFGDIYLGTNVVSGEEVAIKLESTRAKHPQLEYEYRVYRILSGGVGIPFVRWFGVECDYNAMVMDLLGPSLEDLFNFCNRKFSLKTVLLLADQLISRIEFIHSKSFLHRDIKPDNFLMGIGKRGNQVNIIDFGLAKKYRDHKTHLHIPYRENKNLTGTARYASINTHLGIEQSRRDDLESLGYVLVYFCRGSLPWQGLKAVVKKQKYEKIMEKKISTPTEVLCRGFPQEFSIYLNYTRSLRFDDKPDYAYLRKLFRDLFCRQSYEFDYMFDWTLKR

[6] = molecular target: T3, MBP-Hhp1ΔC (Hhp1 amino acids 1 to 296) (S. pombe, UniProt P40235 1-296); experiment: ITC; second replicate
T3 chain: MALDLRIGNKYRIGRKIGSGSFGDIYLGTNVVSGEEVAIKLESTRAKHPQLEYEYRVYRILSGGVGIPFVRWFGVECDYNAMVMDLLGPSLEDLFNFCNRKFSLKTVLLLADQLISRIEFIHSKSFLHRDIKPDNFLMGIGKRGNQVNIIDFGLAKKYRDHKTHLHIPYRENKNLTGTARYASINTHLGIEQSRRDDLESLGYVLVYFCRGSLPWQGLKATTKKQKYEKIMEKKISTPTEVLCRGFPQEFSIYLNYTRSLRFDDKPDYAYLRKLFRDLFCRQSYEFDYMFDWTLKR

[7] = molecular target: T3, MBP-Hhp1ΔC (Hhp1 amino acids 1 to 296); experiment: apparent, in the presence of 25 uM Rec11
[8] = molecular target: MBP-Hhp1ΔC (Hhp1 amino acids 1 to 296) (S. pombe) (UniProt P40235); experiment: ITC; Nano-ITC, 25°C, 10 mM NaPO4 (pH 7.5), 150 mM NaCl, 0.25 mM TCEP; cell: 100 μM MBP-Hhp1ΔC or MBP-CK1εΔC; syringe: 2 mM peptide; single-site binding model; duplicate
[9] = molecular target: T4, MBP-Hhp1ΔC (Hhp1 amino acids 1 to 296) (S. pombe, UniProt P40235 1-296); experiment: pull-down; competitive equilibrium binding assay: as the equilibrium binding assay on peptide beads, with 25 μM substrate (casein or Rec11) added along with the kinase; fit constrained to Bmax = 1 for the apparent Kd; Ki from Kd(app)=Kd(1+[I]/Ki); conditions: both partners purified
T4 construct: Hhp1, CK1 enzyme of Schizosaccharomyces pombe, C-terminally truncated, amino acids 1-296; cDNA cloned into pMAL-C2; also called Hhp1-delC; Hhp1 kinase domain; source: E. coli Rosetta2(DE3)pLysS, purified (amylose beads, eluted with maltose)
T4 sequence (looked up): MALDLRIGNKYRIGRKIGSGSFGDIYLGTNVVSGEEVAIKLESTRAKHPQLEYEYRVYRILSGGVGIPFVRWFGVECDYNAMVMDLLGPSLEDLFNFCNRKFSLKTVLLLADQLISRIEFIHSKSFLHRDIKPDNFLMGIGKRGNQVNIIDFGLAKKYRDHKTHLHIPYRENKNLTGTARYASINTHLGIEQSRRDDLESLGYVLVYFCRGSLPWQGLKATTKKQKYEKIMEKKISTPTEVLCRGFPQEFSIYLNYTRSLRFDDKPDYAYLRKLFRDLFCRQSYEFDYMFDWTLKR

Molecule: CK1ε extreme C-terminus (EC), 383-416 (from UniProt P49674) EC-6P peptide
- binding against the reference (CK1ε CK1εΔC, 1-294): gained

Molecule: dephosphorylated alpha casein (natural protein)
- Ki [4]: 14 µM

Molecule: Hhp1 C-terminus (Cter), 297-365 (from UniProt P40235) Cter-6P peptide
- binding against the reference (Hhp1 Hhp1ΔC, 1-296): gained

B2: Hhp1 Cter peptide (amino acids 297 to 365 of Hhp1, unphosphorylated, biotin-conjugated) (peptide)
peptide: Biotin-KTQQDQQHQQQLQQQLSATPQAINPPPERSSFRNYQKQNFDEKGGDINTTVPVINDPSATGAQYINRPN
- Kd (MBP-Hhp1ΔC-VV): 269 µM

B4: GST-Rec11-N3 (N terminus of Rec11, amino acids 1-33) (domain or fragment, UniProt Q92380 1-33, looked up)
chain: MRFEFESDASSHLNEVLTELESVELENVEYEGP
notes: Rec11, physiological Hhp1 substrate involved in meiosis, N terminus, amino acids 1-33; source: expressed and purified as previously described (16)
- Ki [9]: 32 µM

Further lines, results first:

- binding against the reference [1]: gained
Molecule: Hhp1 Hhp1ΔC, 1-296 (from UniProt P40235) Hhp1ΔC-VV

- Kd(app) in the presence of 25 μM casein [2]: 658 µM
- Kd [3]: 240 µM
Molecule: MBP-Hhp1ΔC (Hhp1 amino acids 1 to 296) (from UniProt P40235 1-296) (domain or fragment)

- Kd [5]: 343 µM
- binding result (MBP-CK1εΔC-T220N): binds
B1: CK1ε EC-6P peptide (amino acids 383 to 416 of CK1ε, phosphorylated at six sites, biotin-conjugated) (peptide, UniProt P49674 383-416, looked up)
peptide: Biotin-GAPANV[pS][pS][pS]DLTGRQEVSRIPA[pS]Q[pT][pS]VPFDHLGK
notes: human CK1ε, final 34 amino acids, 383-416; source: synthetic peptide (LifeTein LLC)

- Kd [6]: 283 µM
- Kd [7]: 425 µM
- Kd [8]: 335 µM
B3: Hhp1 Cter-6P peptide (amino acids 297 to 365 of Hhp1, phosphorylated at six sites, biotin-conjugated) (peptide)
peptide: Biotin-KTQQDQQHQQQLQQQLSATPQAINPPPER[pS][pS]FRNYQKQNFDEKGGDIN[pT][pT]VPVINDP[pS]A[pT]GAQYINRPN
